Test [1] addresses soluble mouse Fc-human NKG2D dimer (human) (UniProt P26718). Put plainly: SPR, 37 C, steady state affinity fit, average of three experiments for TriNKET A (cell split over r19 and r20, columns shifted).
For test [2] the target is unchanged. Put plainly: SPR, 37 C, mFc-hNKG2D captured, TriNKET as analyte, kinetic fit, experiment 2. On the technique in general: SPR reads the build-up and loss of mass on a sensor chip optically.
Test [3] has the same target. Put plainly: SPR, 37 C, mFc-hNKG2D captured, TriNKET as analyte, kinetic fit, experiment 3.
The target is the same in test [4]. Put plainly: SPR, 37 C, mFc-hNKG2D captured, TriNKET as analyte, kinetic fit, experiment 1.
For test [5] the target is unchanged. Put plainly: SPR, 37 C, mFc-hNKG2D captured, TriNKET as analyte, steady state affinity fit, experiment 3.
For test [6] the target is unchanged. Put plainly: SPR, 37 C, mFc-hNKG2D captured, TriNKET as analyte, steady state affinity fit, experiment 1.
Test [7] has the same target. Put plainly: SPR, 37 C, mFc-hNKG2D captured, TriNKET as analyte, experiment 2.
For test [8] the target is unchanged. Kind of test: SPR, 37 C, average of three experiments for TriNKET A (columns shifted).
For test [9] the target is unchanged. Kind of test: SPR, 37 C, mFc-hNKG2D captured, TriNKET as analyte, experiment 3.
The target is the same in test [10]. Put plainly: SPR, 37 C, mFc-hNKG2D captured, TriNKET as analyte, experiment 1.
Test [11] has the same target. Put plainly: SPR, 37 C, mFc-hNKG2D captured, TriNKET as analyte, steady state affinity fit, experiment 2.
Test [12] shares this target. Put plainly: SPR, 37 C, kinetic fit, average of three experiments for TriNKET A (cell split over r19 and r20, columns shifted).

Sequence of soluble mouse Fc-human NKG2D dimer (human) (P26718 78-216): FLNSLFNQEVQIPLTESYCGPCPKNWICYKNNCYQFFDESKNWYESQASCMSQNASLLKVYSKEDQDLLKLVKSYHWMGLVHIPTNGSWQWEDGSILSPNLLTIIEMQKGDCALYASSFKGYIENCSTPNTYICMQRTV

B1: TriNKET A (a TriNKET containing A49) (bispecific antibody, part only; not given: Tumour antigen arm, constant regions, Fc, V domains shown, not shown: another chain or arm of the molecule; a dimerising Fc or GST)
VH: EVQLVESGGGLVKPGGSLRLSCAASGFTFSSYSMNWVRQAPGKGLEWVSSISSSSSYIYYADSVKGRFTISRDNAKNSLYLQMNSLRAEDTAVYYCARGAPMGAAAGWFDPWGQGTLVTVSS
VL: DIQMTQSPSSVSASVGDRVTITCRASQGISSWLAWYQQKPGKAPKLLIYAASSLQSGVPSRFSGSGSGTDFTLTISSLQPEDFATYYCQQGVSFPRTFGGGTKVEIK
Regarding B1, the Kd amounted to 487 nM in [1]; 523 nM in test [2]; 595 nM in [3]; 605 nM in [4]; 580 nM in test [5]; 462 nM in [6]. In test [11], this molecule came in with a Kd of 420 nM. The koff came out at 0.106 s⁻¹ in test [2], 0.115 s⁻¹ in [3], 0.116 s⁻¹ in [4] and 0.112 s⁻¹ in [12]. For the same molecule, the kon in [2] was found to be 203000 M⁻¹ s⁻¹; in test [3], 193000 M⁻¹ s⁻¹; in test [4], 191000 M⁻¹ s⁻¹; in test [12], 196000 M⁻¹ s⁻¹. The Stoichiometry came to 0.88 in [7], 1.01 in test [8], 1.12 in [9] and 1.01 in test [10].

As a reminder, the Kd is the constant that tells how readily two partners part at equilibrium. Broadly, the koff is the first-order rate constant of dissociation. What is called kon is the second-order rate constant of association.

The values above are taken from patent US20240076384A1.
